Here are results for six molecules from patent US20170320927A1 (Novo Nordisk, published 2017).

Starred links: 1 amine or outer side, 2 acyl side, 3 side chain; linkers in the order of their positions; H or OH if unused. Non-standard residues stand in square brackets, D forms with d. Groups on a side chain read outwards from the residue. No end group written: not given here. *: point of attachment. Amino‑C3‑Gly(Bis) = branched linker 2-[bis(3-aminopropyl)amino]acetyl, two legs on the propylamino groups, O=C(CN(CCCN[*:1])CCCN[*:3])[*:2]; C20 diacid = O=C(O)CCCCCCCCCCCCCCCCCCC(=O)*; C18 diacid = O=C(O)CCCCCCCCCCCCCCCCC(=O)*; γGlu = O=C(O)[C@H](CCC(=O)[*:2])N[*:1]; Trx = NC[C@H]1CC[C@H](C(=O)O)CC1; AEEA = NCCOCCOCC(=O)O; Aib = CC(C)(N)C(=O)O

For assay [1], the target named is T1, human GLP-1 receptor (human, UniProt P43220 24-463).
T1 construct: whole, on cells
Kind of assay: competitive SPA, displacement of [125I]-GLP-1-(7-36)NH2 from BHK membranes with human GLP-1 receptor, low HSA (max. 0.001%). The protocol:
1. […] Assay continued with step 3. 2. For the receptor binding assay in the presence of high HSA (2%) 50 μl of the 8% albumin stock was added to each well of an assay plate. Assay continued with step 3. 3. […] 4. Cell membrane aliquots were thawed and diluted to their working concentration. Fifty μl were added to each well in the assay plate. 5. WGA SPA beads were suspended in assay buffer at 20 mg/ml. The suspension was diluted to 10 mg/ml in assay buffer just prior to addition to the assay plate. Fifty μl were added to each well in the assay plate. 6. […] A 25 μl aliquot was reserved for measuring total counts/well. 7. The assay plate was incubated for 2 h at 30° C. 8. The assay plate was centrifuged for 10 min. 9. The assay plate was read in a Packard TopCount NXT instrument.
(§1) The data from the TopCount instrument were transferred to GraphPad Prism software. Individual replicates were analysed using non-linear regression.

Assay [2] concerns the target T1, human GLP-1 receptor. Put plainly: competitive SPA, displacement of [125I]-GLP-1-(7-36)NH2 from BHK membranes with human GLP-1 receptor, high HSA (2.0%). Here is the method:
1. For the receptor binding assay in the presence of low HSA (0.005%) 50 μl of the assay buffer was added to each well of an assay plate. Assay continued with step 3. 2. For the receptor binding assay in the presence of high HSA (2%) 50 μl of the 8% albumin stock was added to each well of an assay plate. Assay continued with step 3. 3. […] 4. Cell membrane aliquots were thawed and diluted to their working concentration. Fifty μl were added to each well in the assay plate. 5. WGA SPA beads were suspended in assay buffer at 20 mg/ml. The suspension was diluted to 10 mg/ml in assay buffer just prior to addition to the assay plate. Fifty μl were added to each well in the assay plate. 6. […] A 25 μl aliquot was reserved for measuring total counts/well. 7. The assay plate was incubated for 2 h at 30° C. 8. The assay plate was centrifuged for 10 min. 9. The assay plate was read in a Packard TopCount NXT instrument.
as §1

The target in assay [3] is T1, human GLP-1 receptor. Kind of assay: cell-based or functional assay.

B1: N{Epsilon-37}-[2-[3-[[2-[2-[2-[[2-[2-[2-[[2-[2-[2-[[2-[2-[2-[[(2S)-2- … (peptide)
peptide: XXEGTFTSDVSSYLEEQAAREFIAWLVRGRK
modifications: not fully specified; Imp (imidazopropionic acid, deamino-histidine) at 7; Aib at 8; Lys37 epsilon-acylated with the branched side chain of the name (GLP-1(7-37) numbering, first residue = 7)
As for B1, the IC50 in the assay with human GLP-1 receptor [1] stood at 0.13 nM; in the assay with human GLP-1 receptor [2] it was 45 nM. Besides, the “EC50 (pM), in vitro potency, CRE luciferase reporter gene assay in BHK cells expressing the human GLP-1 receptor” value (“EC50 (pM), in vitro potency” for short) with human GLP-1 receptor [3] came out at 12 pM.

B2: N{Alpha}([Aib8,Glu22,Arg26,Arg34,Pro37]-GLP-1-(7-37)-peptidyl)-N{Epsilon}[2-[bis[3-[[2-[2-[2-[[2-[2-[2-[[2-[2-[2-[[2-[2-[2-[[2-[2-[2-[[2-[2-[2-[[(4S)-4-carboxy- … (peptide)
peptide: H[Aib]EGTFTSDVSSYLEEQAAREFIAWLVRGRPK([Amino‑C3‑Gly(Bis)-code 2×AEEA-AEEA-AEEA-AEEA-AEEA-AEEA-γGlu-Trx-C20 diacid])
notes: analogue (8Aib, 22E, 26R, 34R, 37P, 38K) GLP-1(7-37)
Take B2: the IC50 with human GLP-1 receptor [1] was 0.31 nM; in the assay with human GLP-1 receptor [2], 30 nM. Also, the “EC50 (pM), in vitro potency” value in the assay with human GLP-1 receptor [3] is 15 pM.
The corresponding values for H[Aib]EGTFTSDVSSYLEEQAAREFIAWLVRK([AEEA-AEEA-AEEA-AEEA-AEEA-AEEA-Amino‑C3‑Gly(Bis)-code 2×γGlu-Trx-C20 diacid])RG (X = Aib) [N{Epsilon-35}-[2-[2-[2-[[2-[2-[2-[[2-[2-[2-[[2-[2-[2-[[2-[2-[2-[[2- …] are 0.33 nM, 7.2 nM and 9.5 pM.
On to H[Aib]EGTFTSDVSSYLEEQAAREFIAWLVRGK([AEEA-AEEA-AEEA-AEEA-AEEA-AEEA-Amino‑C3‑Gly(Bis)-code 2×γGlu-Trx-C20 diacid])G [N{Epsilon-36}-[2-[2-[2-[[2-[2-[2-[[2-[2-[2-[[2-[2-[2-[[2-[2-[2-[[2- …], for which the IC50 with human GLP-1 receptor [1] came to 1.2 nM.
As for H[Aib]EGTFTSDVSSYLEEQAAREFIEWLVRGK([AEEA-AEEA-AEEA-AEEA-Amino‑C3‑Gly(Bis)-code 2×γGlu-C18 diacid])G, the IC50 with human GLP-1 receptor [1] amounted to 1.1 nM; in the assay with human GLP-1 receptor [2] it was 110 nM. In the assay with human GLP-1 receptor [3], the “EC50 (pM), in vitro potency” value was determined as 7.1 pM.
As to H[Aib]EGTFTSDVSSYLEEQAAREFIAWLVRGK([Amino‑C3‑Gly(Bis)-code 2×AEEA-AEEA-AEEA-AEEA-γGlu-C18 diacid])G, the IC50 with human GLP-1 receptor [1] was 0.68 nM.
